How the values were obtained:
[1] = target: T4L-D70N (UniProt P00720); assay: BSI corrected steady-state data, 25° C., pH 8.0
[2] = target: T4L-L99A (UniProt P00720); assay: ITC, KD1 (high affinity mode), T = 37° C. and pH = 7.2
[3] = target: T4L-L99A-A130S (UniProt P00720); assay: BSI, global analysis of kinetic traces
[4] = target: T4L-L99A (UniProt P00720); assay: BSI steady-state, KD2 (low affinity mode), T = 37° C. and pH = 7.2
[5] = target: T4L-D70N (UniProt P00720); assay: BSI, global analysis, kf2 (low affinity mode), 25° C., pH 8.0
[6] = target: T4L-L99A-A130S (UniProt P00720); assay: as above
[7] = target: T4L-L99A (UniProt P00720); assay: Fluorescence, KD1 (high affinity mode), T = 37° C. and pH = 7.2
[8] = target: T4L-D70N (UniProt P00720); assay: BSI, global analysis, KD1 (high affinity mode), 25° C., pH 8.0
[9] = target: T4L-L99A-A130S (UniProt P00720); assay: as above
[10] = target: T4L-D70N (UniProt P00720); assay: BSI, global analysis, kr1 (high affinity mode), 25° C., pH 8.0
[11] = target: T4L-L99A-A130S (UniProt P00720); assay: as above
[12] = target: T4L-L99A (UniProt P00720); assay: BSI steady-state, KD1 (high affinity mode), T = 37° C. and pH = 7.2
[13] = target: T4L-L99A (UniProt P00720); assay: Fluorescence, KD2 (low affinity mode), T = 37° C. and pH = 7.2
[14] = target: T4L-D70N (UniProt P00720); assay: BSI, global analysis, row printed kr1 but read as kr2 (low affinity mode), 25° C., pH 8.0
[15] = target: T4L-L99A-A130S (UniProt P00720); assay: as above
[16] = target: T4L-D70N (UniProt P00720); assay: BSI, global analysis, KD2 (low affinity mode), 25° C., pH 8.0
[17] = target: T4L-L99A-A130S (UniProt P00720); assay: as above
[18] = target: T4L-D70N (UniProt P00720); assay: BSI, global analysis, kf1 (high affinity mode), 25° C., pH 8.0
[19] = target: T4L-L99A-A130S (UniProt P00720); assay: as above
[20] = target: T4L-L99A (UniProt P00720); assay: ITC, KD2 (low affinity mode), T = 37° C. and pH = 7.2

Sequence of αB-D3 (αB-crystallin with serine residues 19, 45 and 59 mutated to aspartic acids) (P02511 other isoform, or with tags, fused parts or gaps limits assumed, stated change not applied): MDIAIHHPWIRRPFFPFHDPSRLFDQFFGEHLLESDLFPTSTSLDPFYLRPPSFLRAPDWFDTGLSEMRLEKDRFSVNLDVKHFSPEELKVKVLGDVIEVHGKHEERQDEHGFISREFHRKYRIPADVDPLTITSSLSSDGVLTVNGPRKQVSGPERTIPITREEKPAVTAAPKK

αB-D3 (αB-crystallin with serine residues 19, 45 and 59 mutated to aspartic acids) (from UniProt P02511 1-175)
reduction in the magnitude of the BSI signal relative to L99A/A130S [1]: 40% | Kd [2]: 0.015 µM | fold increase of affinity in the high affinity mode relative to D70N [3]: 4 fold | Kd [4]: 3.11 µM | kon [5]: 2340 M⁻¹ s⁻¹ | kon [6]: 2970 M⁻¹ s⁻¹ | Kd [7]: 0.02 µM | Kd [8]: 0.595 µM | Kd [9]: 0.132 µM | koff [10]: 0.0152 s⁻¹ | koff [11]: 5.03e-06 s⁻¹ | Kd [12]: 0.001 µM | Kd [13]: 1 µM | koff [14]: 0.0682 s⁻¹ | koff [15]: 0.115 s⁻¹ | Kd [16]: 29.1 µM | Kd [17]: 33 µM | kon [18]: 25500 M⁻¹ s⁻¹ | kon [19]: 58500 M⁻¹ s⁻¹ | Kd [20]: 2.44 µM

Source: patent US20180120302A1
